Patent US8987424B2, “CA6 antigen-specific cytotoxic conjugate and methods of using the same” (ImmunoGen, Inc., priority 2003, dated 2015)

Test system: KB cells
Experiment: Flow cytometry binding assay
Set-up: species or system human
Details: KB
Description: Cells were maintained in a 37° C., 5% CO2 humidified incubator.
Cells ([…]) were incubated, on ice for 3-4 h, with serially diluted concentrations of the DS6 antibody prepared in FACS buffer (2% goat serum, RPMI) into 96-well plates. The cells were spun down in a table top centrifuge at 1500 rpm for 5 min at 4° C. After removing the media, the wells were then refilled with 150 μl of FACS buffer. The wash step was then repeated. FITC-labeled goat anti-mouse IgG (Jackson Immunoresearch) was diluted 1:100 to FACS buffer and incubated with the cells for 1 h on ice. The plate was covered in foil to prevent photobleaching of the signal. After two washes, the cells were fixed with 1% formaldehyde and analyzed on a flow cytometer.
The affinity of the purified huIgG was compared with muDS6 by flow cytometry. In the first set of experiments direct binding to a CA6-expressing cell line, KB, was measured. […] To confirm that the huDS6 versions retain the affinity of muDS6, competitive binding experiments were conducted. The advantage of this format is that the same detection system is used for both murine and human antibodies; that is biotin-muDS6/streptavidin-DTAF.
The binding was conducted essentially as described for FIG. 20 except that KB cells were used rather than CaOv-3 cells.

B1: DS6: murine anti-CA6 monoclonal antibody DS6 (ATCC deposit number PTA-4449) (antibody, V domains shown)
VH: QAYLQQSGAELVRSGASVKMSCKASGYTFTSYNMHWVKQTPGQGLEWIGYIYPGNGATNYNQKFKGKATLTADPSSSTAYMQISSLTSEDSAVYFCARGDSVPFAYWGQGTLVTVSA
VL: QIVLTQSPAIMSASPGEKVTITCSAHSSVSFMHWFQQKPGTSPKLWIYSTSSLASGVPARFGGSGSGTSYSLTISRMEAEDAATYYCQQRSSFPLTFGAGTKLELKR
  MMF (average maximum relative mean fluorescence): 119.56
